Target: the molecule itself
Experiment: self-association (trimerization); EGS crosslinking of K562 cell extracts, SDS-PAGE, western blot
Text: FIG. 9: The HSF1 K80Q mutant is not defective in trimerization ability. A prerequisite of stable HSF binding to DNA is the formation of trimeric HSF complexes. Therefore, it is conceivable that mutations of K80 disrupted proper HSF1 folding or the stress-induced formation of HSF trimers. To explore this possibility, e a cross-linking assay was used to determine the formation of higher-order complexes upon heat shock. K562 cells were transfected with WT Myc-HSF1, Myc-HSF1 K80Q or Myc-HSF1 M391K, L395P, a previously characterized HSF1 mutant that is constitutively trimeric (14). Cells were treated with or without heat shock (HS, 42° C., 20 minutes) followed by treatment with the EGS crosslinking agent. Protein extracts were separated by SDS-PAGE and western blot analysis was performed with the indicated antibodies. The arrow indicates monomeric HSF1 and the arrowhead marks trimeric HSF1.

B1: Myc-HSF1 K80Q (other)
chain: MDLPVGPGAAGPSNVPAFLTKLWTLVSDPDTDALICWSPSGNSFHVFDQGQFAKEVLPKYFKHNNMASFVRQLNMYGFRQVVHIEQGGLVKPERDDTEFQHPCFLRGQEQLLENIKRKVTSVSTLKSEDIKIRQDSVTKLLTDVQLMKGKQECMDSKLLAMKHENEALWREVASLRQKHAQQQKVVNKLIQFLISLVQSNRILGVKRKIPLMLNDSGSAHSMPKYSRQFSLEHVHGSGPYSAPSPAYSSSSLYAPDAVASSGPIISDITELAPASPMASPGGSIDERPLSSSPLVRVKEEPPSPPQSPRVEEASPGRPSSVDTLLSPTALIDSILRESEPAPASVTALTDARGHTDTEGRPPSPPPTSTPEKCLSVACLDKNELSDHLDAMDSNLDNLQTMLSSHGFSVDTSALLDLFSPSVTVPDMSLPDLDSSLASIQELLSPQEPPRPPEAENSSPDSGKQLVHYTAQPLFLLDPGSVDTGSNDLPVLFELGEGSYFSEGDGFAEDPTISLLTGSEPPKAKDPTVS
notes: also called K80Q mutant; K80Q HSF1; not shown: Myc tag
binding result: binds
